Test system: Escherichia coli TOP10
Assay: shrunken log2 fold change of peptide-encoding DNA abundance (4.5 h post-induction vs induction); higher = less antimicrobial activity (less host growth inhibition)
Conditions: time post-induction: 4.5 h; library: site-saturation at positions 5, 18, 19, 20
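Further: peptides expressed intracellularly from a pBAD plasmid library in pooled LB shake-flask culture, induced with 0.3% L-arabinose, DNA abundance read by NGS, three biological replicates, DESeq2 with apeglm shrinkage.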

Sequence | shrunken log2 fold change
RRIRIRPPRLPRPRPRPPQAPRP | 0.639
RRIRIRPPRLPRPRPRPQNVPRP | -0.173
RRIRNRPPRLPRPRPRPHGWPRP | 0.127
RRIRNRPPRLPRPRPRPMGQPRP | 0.128
RRIRLRPPRLPRPRPRPNDFPRP | -0.0142
RRIRQRPPRLPRPRPRPRMYPRP | -0.2
RRIRARPPRLPRPRPRPFGWPRP | 0.24
RRIRGRPPRLPRPRPRPAMHPRP | 1.03
RRIRIRPPRLPRPRPRPTIWPRP | -0.157
RRIRERPPRLPRPRPRPQWHPRP | -0.479
RRIRKRPPRLPRPRPRPIGFPRP | -0.00176
RRIRRRPPRLPRPRPRPVIYPRP | 0.0526
RRIRPRPPRLPRPRPRPPCRPRP | 0.339
RRIRDRPPRLPRPRPRPHKKPRP | -0.00887
RRIRRRPPRLPRPRPRPREQPRP | 0.803
RRIRKRPPRLPRPRPRPIGIPRP | -0.01
RRIRFRPPRLPRPRPRPSMCPRP | -0.714
RRIRGRPPRLPRPRPRPTCPPRP | 0.419
RRIRQRPPRLPRPRPRPKDWPRP | 0.377
RRIRCRPPRLPRPRPRPVTMPRP | -0.49
RRIRCRPPRLPRPRPRPFFIPRP | -0.484
RRIRYRPPRLPRPRPRPLRLPRP | 0.077
RRIRFRPPRLPRPRPRPRTRPRP | 0.244
RRIRRRPPRLPRPRPRPFTHPRP | -0.174
RRIRARPPRLPRPRPRPAFSPRP | 0.215

Sequence | shrunken log2 fold change
RRIRFRPPRLPRPRPRPQFGPRP | -0.0484
RRIRHRPPRLPRPRPRPYWLPRP | -0.85
RRIRNRPPRLPRPRPRPPVLPRP | 0.124
RRIRCRPPRLPRPRPRPFLLPRP | -0.569
RRIRDRPPRLPRPRPRPTAQPRP | 0.0542
RRIRMRPPRLPRPRPRPSLKPRP | 0.359
RRIRNRPPRLPRPRPRPHHRPRP | 0.0742
RRIRVRPPRLPRPRPRPQIDPRP | -0.321
RRIRTRPPRLPRPRPRPAPPPRP | 0.525
RRIRVRPPRLPRPRPRPRQMPRP | 0.117
RRIRKRPPRLPRPRPRPWHMPRP | -0.00936
RRIRWRPPRLPRPRPRPYYLPRP | -0.843
RRIRWRPPRLPRPRPRPHVPPRP | -0.161
RRIRNRPPRLPRPRPRPPHAPRP | 0.22
RRIRKRPPRLPRPRPRPTAIPRP | 0.444
RRIRSRPPRLPRPRPRPIQGPRP | -0.127
RRIRFRPPRLPRPRPRPFMYPRP | -0.742
RRIRKRPPRLPRPRPRPYIVPRP | -0.404
RRIRCRPPRLPRPRPRPRSVPRP | 0.318
RRIRSRPPRLPRPRPRPKHKPRP | -0.0831
RRIRQRPPRLPRPRPRPMPLPRP | -0.00134
RRIRPRPPRLPRPRPRPWDNPRP | -0.00581
RRIRWRPPRLPRPRPRPFTMPRP | -0.36
RRIRERPPRLPRPRPRPNYAPRP | -0.0181
RRIRGRPPRLPRPRPRPNKNPRP | 0.3

Sequence | shrunken log2 fold change
RRIRVRPPRLPRPRPRPFRFPRP | 0.0201
RRIRIRPPRLPRPRPRPLMNPRP | -0.94
RRIRLRPPRLPRPRPRPESKPRP | 0.286
RRIRPRPPRLPRPRPRPKINPRP | -0.32
RRIRARPPRLPRPRPRPYWAPRP | -0.106
RRIRYRPPRLPRPRPRPYSYPRP | -0.395
RRIRWRPPRLPRPRPRPGSMPRP | -0.0806
RRIRHRPPRLPRPRPRPGDIPRP | -0.412
RRIRTRPPRLPRPRPRPQHIPRP | -0.554
RRIRKRPPRLPRPRPRPVSFPRP | -0.0599
RRIRNRPPRLPRPRPRPEEQPRP | 0.202
RRIRWRPPRLPRPRPRPVHKPRP | 0.0181
RRIRARPPRLPRPRPRPHIVPRP | -0.000968
RRIRVRPPRLPRPRPRPSDFPRP | -0.394
RRIRARPPRLPRPRPRPATYPRP | 0.0208
RRIRTRPPRLPRPRPRPEQLPRP | 0.117
RRIRPRPPRLPRPRPRPYPDPRP | -0.145
RRIRERPPRLPRPRPRPMPLPRP | 0.000847
RRIRKRPPRLPRPRPRPCSLPRP | -0.529
RRIRMRPPRLPRPRPRPNIVPRP | 0.0335
RRIRPRPPRLPRPRPRPGCRPRP | 0.289
RRIRRRPPRLPRPRPRPQPPPRP | 0.413
RRIRTRPPRLPRPRPRPRRWPRP | -0.0464
RRIRYRPPRLPRPRPRPNEQPRP | 0.0039
RRIRRRPPRLPRPRPRPCEQPRP | -0.0395

Sequence | shrunken log2 fold change
RRIRYRPPRLPRPRPRPIWYPRP | -0.0575
RRIRTRPPRLPRPRPRPACNPRP | 0.0894
RRIRQRPPRLPRPRPRPDRKPRP | -0.085
RRIRTRPPRLPRPRPRPFCHPRP | 0.0326
RRIRCRPPRLPRPRPRPWHYPRP | -0.51
RRIRFRPPRLPRPRPRPFIWPRP | -0.312
RRIRFRPPRLPRPRPRPPMEPRP | -0.0751
RRIRIRPPRLPRPRPRPFPCPRP | -0.0282
RRIRWRPPRLPRPRPRPFVSPRP | -0.135
RRIRIRPPRLPRPRPRPFSDPRP | -0.227
RRIRCRPPRLPRPRPRPCLQPRP | -0.129
RRIRFRPPRLPRPRPRPNVPPRP | -0.0369
RRIRERPPRLPRPRPRPLGMPRP | -0.294
RRIRWRPPRLPRPRPRPTQNPRP | 0.637
RRIRFRPPRLPRPRPRPESQPRP | -0.0723
RRIRDRPPRLPRPRPRPAHQPRP | 0.516
RRIRFRPPRLPRPRPRPTWFPRP | 0.0971
RRIRCRPPRLPRPRPRPPTEPRP | 1.77
RRIRGRPPRLPRPRPRPWTEPRP | 0.128
RRIRFRPPRLPRPRPRPLGRPRP | 0.109
RRIRWRPPRLPRPRPRPHAVPRP | 0.172
RRIRPRPPRLPRPRPRPTNAPRP | 0.167
RRIRRRPPRLPRPRPRPIQWPRP | -0.105
RRIRERPPRLPRPRPRPFNFPRP | -0.298
RRIRGRPPRLPRPRPRPFCKPRP | 0.0671

Sequence | shrunken log2 fold change
RRIRPRPPRLPRPRPRPHFDPRP | -0.0993
RRIRERPPRLPRPRPRPFYIPRP | -0.5
RRIRMRPPRLPRPRPRPCYEPRP | 0.0712
RRIRFRPPRLPRPRPRPSKDPRP | -0.347
RRIRRRPPRLPRPRPRPGRSPRP | -0.104
RRIRQRPPRLPRPRPRPEIFPRP | 0.127
RRIRWRPPRLPRPRPRPVNQPRP | 0.0575
RRIRHRPPRLPRPRPRPCWHPRP | -0.112
RRIRNRPPRLPRPRPRPRSGPRP | -0.0312
RRIRERPPRLPRPRPRPTWHPRP | 0.358
RRIRSRPPRLPRPRPRPESNPRP | -0.126
RRIRNRPPRLPRPRPRPPMHPRP | 0.0449
RRIRERPPRLPRPRPRPMSGPRP | 0.0249
RRIRTRPPRLPRPRPRPQQEPRP | 0.0173
RRIRRRPPRLPRPRPRPIAYPRP | 0.0129
RRIRPRPPRLPRPRPRPLCAPRP | 0.119
RRIRIRPPRLPRPRPRPRLHPRP | -0.341
RRIRRRPPRLPRPRPRPYVGPRP | -0.00208
RRIRQRPPRLPRPRPRPQTNPRP | -0.736
RRIRCRPPRLPRPRPRPENVPRP | -0.0137
RRIRTRPPRLPRPRPRPSNCPRP | -0.414
RRIRCRPPRLPRPRPRPHRIPRP | -0.492
RRIRGRPPRLPRPRPRPAFSPRP | 0.0169
RRIRFRPPRLPRPRPRPNRKPRP | -0.173
RRIRLRPPRLPRPRPRPYDSPRP | 0.00122

— the supplement of paper PMC9112550, “Optimization of the antimicrobial peptide Bac7 by deep mutational scanning” (BMC Biology, 2022)
